Assay results: patent publication US12209135B2, “Anti-CD45 antibodies and conjugates thereof” (priority 2019, dated 2025)
Residue numbers refer to the chain shown, from its start.

T1: human CD45 ectodomain (Homo sapiens, UniProt P08575)
T1 construct: purified human, rhesus or cynomolgus CD45 ectodomain
T1 sequence (P08575 26-577): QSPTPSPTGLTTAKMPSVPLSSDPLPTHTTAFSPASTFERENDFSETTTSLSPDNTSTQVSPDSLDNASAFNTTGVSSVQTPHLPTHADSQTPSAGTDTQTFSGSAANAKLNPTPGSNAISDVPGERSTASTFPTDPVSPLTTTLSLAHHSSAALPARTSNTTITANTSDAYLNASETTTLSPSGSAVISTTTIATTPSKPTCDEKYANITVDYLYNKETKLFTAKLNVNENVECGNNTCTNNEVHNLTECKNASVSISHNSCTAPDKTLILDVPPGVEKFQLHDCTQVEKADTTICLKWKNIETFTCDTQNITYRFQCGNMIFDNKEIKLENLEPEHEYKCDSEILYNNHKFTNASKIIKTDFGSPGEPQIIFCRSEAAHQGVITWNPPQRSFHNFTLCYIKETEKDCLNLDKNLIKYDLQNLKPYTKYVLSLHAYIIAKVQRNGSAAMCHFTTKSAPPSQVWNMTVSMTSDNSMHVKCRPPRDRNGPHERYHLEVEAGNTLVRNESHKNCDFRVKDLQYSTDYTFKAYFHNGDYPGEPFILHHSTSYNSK

T2: rhesus CD45 ectodomain (Macaca mulatta, UniProt A0A1D5R142)
T2 construct: purified human, rhesus or cynomolgus CD45 ectodomain
T2 sequence (A0A1D5R142 26-581): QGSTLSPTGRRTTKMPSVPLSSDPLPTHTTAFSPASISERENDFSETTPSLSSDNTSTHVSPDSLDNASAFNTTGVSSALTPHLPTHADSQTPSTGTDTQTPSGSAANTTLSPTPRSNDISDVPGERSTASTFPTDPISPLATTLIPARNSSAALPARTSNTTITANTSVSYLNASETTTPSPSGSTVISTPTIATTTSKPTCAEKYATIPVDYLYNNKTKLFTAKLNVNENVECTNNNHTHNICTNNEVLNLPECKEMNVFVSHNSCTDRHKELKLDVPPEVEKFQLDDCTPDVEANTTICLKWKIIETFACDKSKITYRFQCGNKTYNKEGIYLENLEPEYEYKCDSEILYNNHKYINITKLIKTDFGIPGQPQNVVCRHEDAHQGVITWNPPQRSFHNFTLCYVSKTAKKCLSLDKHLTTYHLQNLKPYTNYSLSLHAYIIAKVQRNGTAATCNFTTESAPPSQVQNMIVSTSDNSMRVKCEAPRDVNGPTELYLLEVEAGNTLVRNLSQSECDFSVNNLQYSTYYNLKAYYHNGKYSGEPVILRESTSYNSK

B1: Ab7: variant of Ab3 with asparagine to serine substitution in CDR-L1; VH SEQ ID NO:61, VL SEQ ID NO:65 (antibody, V domains shown)
VH: QVQLVESGGGLVKPGGSLRLSCAASGFTFGGYSMNWVRQAPGKGLEWVSYISISGATITYADSVKGRFTISRDNAKNSLYLQMNSLRAEDTAVYYCARGGQYYYDSSDYGEVAFDIWGQGTMVTVSS
VL: DIVMTQSPLSLPVTPGEPASISCRSSQSLVSSGYNYLDWYLQKPGQSPQLLIYFGSSRASGVPDRFSGSGSGTDFTLKISRVEAEDVGVYYCMQRRRTPPFTFGGGTKVEIK
B2: Ab5: variant of Ab4 with asparagine to serine substitution in CDR-L1; VH SEQ ID NO:41, VL SEQ ID NO:45 (antibody, V domains shown)
VH: B1 VH with Q1E, K13Q, G30E, G31A, I53L, T59H, D105T
VL: DIVMTQSPLSLPVTPGEPASISCRSSQSLVSSGYNYLDWYLQKPGQSPQLLIYFGSSRASGVPDRFSGSGSGTDFTLKISRVEAEDVGVYYCMQRRRTPWSFGGGTKVEIK
B3: Ab3: affinity matured human anti-CD45 IgG derived from Ab1; VH SEQ ID NO:21, VL SEQ ID NO:25 (antibody, V domains shown)
VH: B1 VH
VL: B1 VL with S32N
B4: Ab2: affinity matured human anti-CD45 IgG derived from Ab1; VH SEQ ID NO:11, VL SEQ ID NO:15 (antibody, V domains shown)
VH: B1 VH with Q1E, K13Q, G30E, G31A, I53L, T59H
VL: B2 VL with S32N
B5: Ab6: affinity matured human anti-CD45 IgG derived from Ab1; VH SEQ ID NO:51, VL SEQ ID NO:55 (antibody, V domains shown)
VH: B1 VH with Q1E, K13Q, G30E, G31A, I53L, T59H, D105T, M122L
VL: B2 VL with M4L
B6: AbC: affinity matured variant of parent clone C; VH SEQ ID NO:91, VL SEQ ID NO:95 (antibody, V domains shown)
VH: EVQLVESGGGLVQPGGSLRLSCAASGFTFNNYWMTWVRQAPGKGLEWVSSISSSGGSIYYPDSVKDRFTISRDNAKNSLYLQMNSLRAEDMAVYYCARLYYYDGGGDAWGQGTLVTVSS
VL: GIQMTQSPSSLSASVGDRVTITCKASQDINKYLDWYQQKPGKAPKLLIYNTNNLHTGIPSRFSGSGSGTDYTLTISSLQPEDFATYYCLQHISRWTFGGGTKVEIK
B7: AbB: affinity matured variant of parent clone B; VH SEQ ID NO:81, VL SEQ ID NO:85 (antibody, V domains shown)
VH: EVQLVESGGGLVQPGGSLRLSCAASGFTFTNFWMAWIRQAPGKGLEWVASISSSGGSIYYPDSVKDRFTISRDNSKNTLYLQMNSLRAEDTAVYYCVKFHHYSGGGDAWGQGTLVTVSS
VL: B6 VL with G1D, D28N, Y49H, N50Y, I92S
B8: AbA: humanized and affinity matured variant of parent clone A; VH SEQ ID NO:71, VL SEQ ID NO:75 (antibody, V domains shown)
VH: EVQLLESGGGLVQPGGSLRLSCAASGFTFNNYWMTWVRQAPGKGLEWVSSISSSGGSIYYPDRVKGRFTISRDNSKNTLYLQMNSLRAEDTAVYYCARDERWAGAMDAWGQGTTVTVSS
VL: DIQMTQSPSSLSASVGDRVTITCKASQNINKNLDWYQQKPGKAPKLLIYETNNLQTGVPSRFSGSGSGTDFTLTISSLQPEDFATYYCYQHNSRFTFGQGTKLEIK

Target: T1, human CD45 ectodomain
Assay: Biolayer interferometry (BLI, Octet) binding of immobilized IgG to purified CD45 ectodomain
Conditions: BLI / Octet
Description: (§1) Antibody binding studies were performed at 25° C. in 1×PBS supplemented with 0.1% w/v bovine serum albumin with a Pall ForteBio Octet Red96 using biolayer interferometry (BLI).
(§2) The apparent monovalent affinity (KD), apparent association rate (KON), and apparent dissociation rate (KOFF) were determined by local full fitting with a 1:1 binding model as calculated by ForteBio data analysis software version 10 of each IgG to purified human, cynomolgus or rhesus CD45 ectodomain. […] Binding was confirmed using
Briefly, antibody binding studies were performed at 25° C. in 1×PBS supplemented with 0.1% w/v bovine serum albumin with a PALL FORTEBIO OCTET RED96 using biolayer interferometry (BLI). Each purified antibody was immobilized onto anti-human Fc biosensors (AHQ; PALL FORTEBIO 18-5001) and incubated with 100 nM of purified human or 300 nM of cynomolgus CD45 ectodomain.
(§3) The apparent monovalent affinity (KD), apparent association rate (KON), and apparent dissociation rate (KDIS or KOFF) were determined by local full fitting with a 1:1 binding model as calculated by FORTEBIO data analysis software version 10. […] Each of the selected humanized antibodies AbA, AbB, and AbC was able to cross react with human and cynomolgus CD45.

In the case of B1, the “CD45 binding compared with parent (qualitative)” value is reported as “did not alter CD45 binding”.
In the case of B2, the “CD45 binding compared with parent (qualitative)” value is reported as “did not alter CD45 binding”.

Same assay, conditions: Table 2, Human CD45

First: B3
Second: B4
The “Kdis” value of the first is 8-fold higher: 0.000225 s⁻¹ for the first, 2.8e-05 s⁻¹ for the second.

Going from B1 to B5, the “Kdis” value falls from 0.000615 s⁻¹ to 1.73e-05 s⁻¹ (36-fold).

With B2 the “Kdis” value was 3.36e-05 s⁻¹.

B3 and B4 are within 1.5-fold of each other in “Kon” value: 260000 M⁻¹ s⁻¹ for the first, 245000 M⁻¹ s⁻¹ for the second.

B1 and B5 are within 1.5-fold of each other in “Kon” value: 264000 M⁻¹ s⁻¹ for the first, 242000 M⁻¹ s⁻¹ for the second.

In the case of B2, the “Kon” value is reported as 233000 M⁻¹ s⁻¹.

Same assay, conditions: Table 11, Human CD45

B6 and B7 are within 1.5-fold of each other in “KON” value: 50800 M⁻¹ s⁻¹ for the first, 43800 M⁻¹ s⁻¹ for the second.

For B8, the “KON” value was 50300 M⁻¹ s⁻¹.

Compared with B6, B7 is 1.6-fold higher in “Kdis” value: 0.000149 s⁻¹ for the first, 0.000239 s⁻¹ for the second.

In the case of B8, the “Kdis” value is reported as 0.000181 s⁻¹.

Same assay, conditions: text b859

With B6 the “improved affinity over the parent clone” value was “greater than 4 fold”.

Target: T2, rhesus CD45 ectodomain
Assay: as above
Conditions: Table 2, Rhesus CD45
Description: as §1
as §2, with “using […]” for “using”

B3 and B4 are within 1.5-fold of each other in “Kdis” value: 0.000222 s⁻¹ for the first, 0.000192 s⁻¹ for the second.

Compared with B1, B5 is 3.1-fold lower in “Kdis” value: 0.000544 s⁻¹ for the first, 0.000175 s⁻¹ for the second.

In the case of B2, the “Kdis” value is reported as 0.000193 s⁻¹.

B3 and B4 are the same in “Kon” value: 135000 M⁻¹ s⁻¹ for the first, 135000 M⁻¹ s⁻¹ for the second.

B1 and B5 are within 1.5-fold of each other in “Kon” value: 124000 M⁻¹ s⁻¹ for the first, 122000 M⁻¹ s⁻¹ for the second.

For B2, the “Kon” value was 113000 M⁻¹ s⁻¹.

Same assay, conditions: Table 2, Rhesus CD45; 50 nM antigen (Ab1: 300 nM)

B3 and B4 are within 1.5-fold of each other in Kd: 1.65 nM for the first, 1.42 nM for the second.

Compared with B1, B5 is 3-fold lower in Kd: 4.39 nM for the first, 1.44 nM for the second. The second binds more tightly here.

For B2, the Kd was 1.71 nM.

Test system: cynomolgus CD45 ectodomain
Assay: as above
Conditions: Table 2, Cynomolgus CD45
Description: as §1, §2
Briefly, antibody binding studies were performed at 25° C. in 1×PBS supplemented with 0.1% w/v bovine serum albumin with a PALL FORTEBIO OCTET RED96 using biolayer interferometry (BLI). […]
as §3

Sequence of cynomolgus CD45 ectodomain (as listed by the source): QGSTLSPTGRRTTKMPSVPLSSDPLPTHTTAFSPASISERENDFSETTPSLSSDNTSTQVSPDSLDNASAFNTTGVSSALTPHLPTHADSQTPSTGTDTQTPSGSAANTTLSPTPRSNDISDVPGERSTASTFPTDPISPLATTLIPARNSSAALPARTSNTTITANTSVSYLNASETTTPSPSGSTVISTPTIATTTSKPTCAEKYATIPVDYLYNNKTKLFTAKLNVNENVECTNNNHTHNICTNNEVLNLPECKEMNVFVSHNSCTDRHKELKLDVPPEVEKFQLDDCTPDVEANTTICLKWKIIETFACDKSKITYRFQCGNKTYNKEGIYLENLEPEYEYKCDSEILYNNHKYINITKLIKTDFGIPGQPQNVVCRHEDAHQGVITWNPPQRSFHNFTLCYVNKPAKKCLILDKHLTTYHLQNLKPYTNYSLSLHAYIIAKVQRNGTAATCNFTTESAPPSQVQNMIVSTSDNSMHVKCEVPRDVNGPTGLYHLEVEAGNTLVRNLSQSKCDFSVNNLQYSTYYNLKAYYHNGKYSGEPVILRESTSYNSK

B3 and B4 are within 1.5-fold of each other in “Kdis” value: 0.000192 s⁻¹ for the first, 0.000129 s⁻¹ for the second.

Compared with B1, B5 is 3.5-fold lower in “Kdis” value: 0.000537 s⁻¹ for the first, 0.000154 s⁻¹ for the second.

In the case of B2, the “Kdis” value is reported as 0.000164 s⁻¹.

B3 and B4 are within 1.5-fold of each other in “Kon” value: 120000 M⁻¹ s⁻¹ for the first, 119000 M⁻¹ s⁻¹ for the second.

B1 and B5 are within 1.5-fold of each other in “Kon” value: 127000 M⁻¹ s⁻¹ for the first, 118000 M⁻¹ s⁻¹ for the second.

With B2 the “Kon” value was 117000 M⁻¹ s⁻¹.

Same assay, conditions: Table 2, Cynomolgus CD45; 50 nM antigen (Ab1: 300 nM)

B3 and B4 are within 1.5-fold of each other in Kd: 1.61 nM for the first, 1.08 nM for the second.

Going from B1 to B5, the Kd falls from 4.24 nM to 1.3 nM (3.3-fold). The second binds more tightly here.

Same assay, conditions: Table 11, Cyno CD45

B6 and B7 are within 1.5-fold of each other in “KON” value: 11100 M⁻¹ s⁻¹ for the first, 8160 M⁻¹ s⁻¹ for the second.

For B8, the “KON” value was 9440 M⁻¹ s⁻¹.

B6 and B7 are within 1.5-fold of each other in “Kdis” value: 0.000282 s⁻¹ for the first, 0.00042 s⁻¹ for the second.

With B8 the “Kdis” value was 0.000322 s⁻¹.

Same assay, conditions: Table 11, Cyno CD45; 300 nM antigen

Going from B6 to B7, the Kd rises from 25.3 nM to 51.5 nM (2-fold). The first binds more tightly here.

Work on B8 yielded a Kd of 34.1 nM.

Test system: not listed separately
Assay: Two-week thermal / pH stress stability by HIC and peptide mapping
Type: physicochemical
Conditions: 4° C., 25° C., 40° C. for 15 days; high pH treatment
Description: A two-week stability assay was performed by incubating Ab3 and Ab4 at 4° C., 25° C., and 40° C. for 15 days, after which the antibodies were analyzed by […] (HIC). Briefly, 25 micrograms of the indicated antibody were injected onto a Tosoh TSKgel Phenyl-5PW 7.5 mm ID×7.5 cm 10-micron column (Catalog #07573) on a Waters ARC HPLC/UPLC system. […] This hydrophilic pre-peak was indicative of a potential site of post-translational modification (e.g., oxidation or deamidation). Peptide mapping was subsequently performed to identify which amino acids were modified in each antibody upon exposure to stress (high pH, low pH, and oxidative stress). The peptide mapping analysis identified a potential site of deamidation at an asparagine in CDR-L1 (N30 position) in response to high pH conditions (e.g., pH 8 or greater).
Accordingly, variants of Ab3 and Ab4 were generated in which the asparagine in CDR-L1 (e.g., at position 30B) was substituted with a serine. The resulting antibodies were named Ab7 and Ab5 respectively.

In the case of B3, the “HIC hydrophilic pre-peak (deamidated species)” value is reported as “hydrophilic pre-peak that increased as a function of thermal stress”.
